Data published in paper doi:10.1101/429076 (bioRxiv, 2018).

T1: FANCL URD-RING fragment (FANCL^UR, residues 109-375) (human, UniProt Q9NW38 109-375)
T1 sequence (looked up): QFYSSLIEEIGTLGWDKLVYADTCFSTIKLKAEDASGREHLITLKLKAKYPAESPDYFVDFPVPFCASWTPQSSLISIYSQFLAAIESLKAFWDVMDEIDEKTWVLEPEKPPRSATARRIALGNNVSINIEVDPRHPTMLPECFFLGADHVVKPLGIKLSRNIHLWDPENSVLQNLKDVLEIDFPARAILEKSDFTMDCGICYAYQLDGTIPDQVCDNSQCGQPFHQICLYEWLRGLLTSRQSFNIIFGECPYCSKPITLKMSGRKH

B1: Ube2T wildtype (enzyme, human, UniProt Q9NPD8 1-197, looked up)
chain: MQRASRLKRELHMLATEPPPGITCWQDKDQMDDLRAQILGGANTPYEKGVFKLEVIIPERYPFEPPQIRFLTPIYHPNIDSAGRICLDVLKLPPKGAWRPSLNIATVLTSIQLLMSEPNPDDPLMADISSEFKYNKPAFLKNARQWTEKHARQKQKADEEEMLDNLPEAGDSRVHNSTQKRKASQLVGIEKKFHPDV
B2: Ube2T backside β1 double mutant (T23R+W25Q or TW/RQ) (enzyme, human, UniProt Q9NPD8 1-197, looked up)
chain: MQRASRLKRELHMLATEPPPGIRCQQDKDQMDDLRAQILGGANTPYEKGVFKLEVIIPERYPFEPPQIRFLTPIYHPNIDSAGRICLDVLKLPPKGAWRPSLNIATVLTSIQLLMSEPNPDDPLMADISSEFKYNKPAFLKNARQWTEKHARQKQKADEEEMLDNLPEAGDSRVHNSTQKRKASQLVGIEKKFHPDV

Legend:
Experiment in all cases: ITC
[1] = target: T1, FANCL URD-RING fragment (FANCL^UR, …)
[2] = target: B2
Ube2T wildtype = target: B1

Kd [1] [nM] | dH [1] [kcal/mol] | Binder | also measured
~119 | 6.46 | B1 | –
– | – | FANCL RING domain (FANCL^R, residues 289-375) (domain or fragment, human, UniProt Q9NW38 289-375, looked up) EIDFPARAILEKSDFTMDCGICYAYQLDGTIPDQVCDNSQCGQPFHQICLYEWLRGLLTSRQSFNIIFGECPYCSKPITLKMSGRKH | binding result [2]: binds; Kd (Ube2T wildtype): ~250 nM
– | – | Ube2T Glu54Arg (Ube2Tv1 variant with a permissive gate, E54R) (enzyme, human, UniProt Q9NPD8 1-197, looked up) MQRASRLKRELHMLATEPPPGITCWQDKDQMDDLRAQILGGANTPYEKGVFKLRVIIPERYPFEPPQIRFLTPIYHPNIDSAGRICLDVLKLPPKGAWRPSLNIATVLTSIQLLMSEPNPDDPLMADISSEFKYNKPAFLKNARQWTEKHARQKQKADEEEMLDNLPEAGDSRVHNSTQKRKASQLVGIEKKFHPDV | binding result [1]: binds
~119 | -1.65 | Ube2T loop2-loop7 hybrid mutant (D32A, D33A, L92A or DDL/AAA) (enzyme, human, UniProt Q9NPD8 1-197, looked up) MQRASRLKRELHMLATEPPPGITCWQDKDQMAALRAQILGGANTPYEKGVFKLEVIIPERYPFEPPQIRFLTPIYHPNIDSAGRICLDVLKAPPKGAWRPSLNIATVLTSIQLLMSEPNPDDPLMADISSEFKYNKPAFLKNARQWTEKHARQKQKADEEEMLDNLPEAGDSRVHNSTQKRKASQLVGIEKKFHPDV | –
200 | – | B2 | –
